Source: patent US20250361317A1 (Janssen / Centocor, published 2025)

T1: human EMR2 (ADGRE2, CD312) on cells (human, UniProt Q9UHX3 24-823)
T1 construct: also called huEMR2 full length; Adhesion G protein-coupled receptor E2
T1 sequence: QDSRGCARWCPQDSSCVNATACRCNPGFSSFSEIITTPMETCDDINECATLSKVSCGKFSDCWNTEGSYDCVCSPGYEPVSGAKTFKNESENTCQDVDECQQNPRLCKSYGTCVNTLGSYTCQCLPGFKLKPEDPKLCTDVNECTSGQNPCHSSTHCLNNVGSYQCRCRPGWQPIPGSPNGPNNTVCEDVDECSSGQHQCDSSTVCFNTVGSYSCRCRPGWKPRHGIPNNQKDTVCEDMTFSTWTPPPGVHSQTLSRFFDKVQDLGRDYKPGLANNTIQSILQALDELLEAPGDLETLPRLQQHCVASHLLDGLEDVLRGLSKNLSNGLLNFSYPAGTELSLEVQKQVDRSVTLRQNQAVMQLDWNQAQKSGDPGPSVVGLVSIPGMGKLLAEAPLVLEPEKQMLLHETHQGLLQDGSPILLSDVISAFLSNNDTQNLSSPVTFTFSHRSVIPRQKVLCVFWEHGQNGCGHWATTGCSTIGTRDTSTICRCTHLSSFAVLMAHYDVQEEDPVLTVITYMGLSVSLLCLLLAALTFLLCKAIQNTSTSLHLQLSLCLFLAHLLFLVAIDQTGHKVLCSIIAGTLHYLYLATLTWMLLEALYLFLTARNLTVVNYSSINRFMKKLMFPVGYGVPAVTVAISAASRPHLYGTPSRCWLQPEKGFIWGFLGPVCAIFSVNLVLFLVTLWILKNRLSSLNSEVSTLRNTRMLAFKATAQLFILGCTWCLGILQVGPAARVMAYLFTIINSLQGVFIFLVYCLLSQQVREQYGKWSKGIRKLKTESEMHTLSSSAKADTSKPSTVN

T2: EMR2W4, huEMR2 GAIN domain + GPS, D261-T540, with C-terminal Avi/6x His tag (human)
T2 construct: also called Human EMR2 GAIN domain protein
T2 chain: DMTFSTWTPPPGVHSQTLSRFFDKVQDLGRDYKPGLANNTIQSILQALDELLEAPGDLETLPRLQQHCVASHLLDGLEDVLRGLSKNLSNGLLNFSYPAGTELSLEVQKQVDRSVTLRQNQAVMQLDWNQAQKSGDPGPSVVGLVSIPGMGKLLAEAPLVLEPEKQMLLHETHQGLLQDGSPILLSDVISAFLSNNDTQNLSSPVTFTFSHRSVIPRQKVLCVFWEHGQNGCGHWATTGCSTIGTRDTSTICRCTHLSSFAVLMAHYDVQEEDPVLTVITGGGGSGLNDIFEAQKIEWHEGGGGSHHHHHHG

B1: EMVBB27 (bispecific antibody, human IgG1, kappa, L234A L235A)
heavy chain 1 (Vb17 arm, B17B21-LC-N33S Fab): QVQLQESGPGLVKPSETLSLTCTVSGYSITSGYFWNWIRQPPGKGLEWIGYISYDGSNNYNPSLKSRVTISRDTSKNQFSLKLSSVTAADTAVYYCASPSPGTGYAVDYWGQGTLVTVSSASTKGPSVFPLAPSSKSTSGGTAALGCLVKDYFPEPVTVSWNSGALTSGVHTFPAVLQSSGLYSLSSVVTVPSSSLGTQTYICNVNHKPSNTKVDKKVEPKSCDKTHTCPPCPAPEAAGGPSVFLFPPKPKDTLMISRTPEVTCVVVSVSHEDPEVKFNWYVDGVEVHNAKTKPREEQYNSTYRVVSVLTVLHQDWLNGKEYKCKVSNKALPAPIEKTISKAKGQPREPQVYTLPPSREEMTKNQVSLWCLVKGFYPSDIAVEWESNGQPENNYKTTPPVLDSDGSFFLYSKLTVDKSRWQQGNVFSCSVMHEALHNRFTQKSLSLSPGK
light chain 1 (Vb17 arm, B17B21-LC-N33S Fab): DIQMTQSPSSLSASVGDRVTITCRSSQSLVHSSGNTYLHWYQQKPGKAPKFLIYKVSNRFSGVPSRFSGSGSGTDFTLTISSLQPEDFATYYCSQSTHVPFTFGQGTKLEIKRTVAAPSVFIFPPSDEQLKSGTASVVCLLNNFYPREAKVQWKVDNALQSGNSQESVTEQDSKDSTYSLSSTLTLSKADYEKHKVYACEVTHQGLSSPVTKSFNRGEC
heavy chain 2 (EMR2 arm, EMR2B57-LH-spFv fused to Fc): QSALTQPASVSGSPGQSITISCTGTSSDVGGYNYVSWYQQHPGCAPKLMIYEVSYRPSGVSNRFSGSKSGNTASLTISGLQAEDEADYYCSSYTSSSTYVVFGGGTKLTVLGGGSGGSGGCPPCGGSGGEVQLVESGGGLVQPGGSLRLSCAASGFTFRSYWMHWVRQAPGKGLVWVSRISSGGSTTNYADSVKGRFTISRDNAKNTLYLQMNSLRAEDTAIYYCARGDNYYDSPYFDYWGCGTLVTVSSEPKSSDKTHTCPPCPAPEAAGGPSVFLFPPKPKDTLMISRTPEVTCVVVSVSHEDPEVKFNWYVDGVEVHNAKTKPREEQYNSTYRVVSVLTVLHQDWLNGKEYKCKVSNKALPAPIEKTISKAKGQPREPQVYTLPPSREEMTKNQVSLSCAVKGFYPSDIAVEWESNGQPENNYKTTPPVLDSDGSFFLVSKLTVDKSRWQQGNVFSCSVMHEALHNHYTQKSLSLSPGK
notes: also called EMVBB27.003; TPP000263194
B2: EMVBB6 (bispecific antibody, human IgG1, lambda, L234A L235A)
heavy chain 1 (Vb17 arm, B17B852-G34R-LH-spFv fused to Fc): DIQMTQSPSSLSASVGDRVTITCRSSQSLVHSNRNTYLHWYQQKPGCAPKLLIYKVSNRFSGVPSRFSGSGSGTDFTLTISSLQPEDFATYYCSQSTHVPFTFGQGTKLEIKGGGSGGSGGCPPCGGSGGQVQLQESGPGLVKPSETLSLTCTVSGYSITSGYFWNWIRQFPGKGLEWMGYISYDGSNNYNPSLKSRITISRDTSKNQFSLKLSSVTAADTAVYYCASPSPGTGYAVDYWGCGTTVTVSSEPKSSDKTHTCPPCPAPEAAGGPSVFLFPPKPKDTLMISRTPEVTCVVVSVSHEDPEVKFNWYVDGVEVHNAKTKPREEQYNSTYRVVSVLTVLHQDWLNGKEYKCKVSNKALPAPIEKTISKAKGQPREPQVYTLPPSREEMTKNQVSLWCLVKGFYPSDIAVEWESNGQPENNYKTTPPVLDSDGSFFLYSKLTVDKSRWQQGNVFSCSVMHEALHNHYTQKSLSLSPGK
heavy chain 2 (EMR2 arm, EMR2B361 Fab): EVQLVQSGGGLVKPGGSLRLSCVASGFIFRSYSMNWVRQAPGKGLEWVSSISSSSSYIYYADSVKGRFTISRDNAKNSLYLQMDSLRAEDTAVYYCARREYGGPFDYWGQGTLVTVSSASTKGPSVFPLAPSSKSTSGGTAALGCLVKDYFPEPVTVSWNSGALTSGVHTFPAVLQSSGLYSLSSVVTVPSSSLGTQTYICNVNHKPSNTKVDKKVEPKSCDKTHTCPPCPAPEAAGGPSVFLFPPKPKDTLMISRTPEVTCVVVSVSHEDPEVKFNWYVDGVEVHNAKTKPREEQYNSTYRVVSVLTVLHQDWLNGKEYKCKVSNKALPAPIEKTISKAKGQPREPQVYTLPPSREEMTKNQVSLSCAVKGFYPSDIAVEWESNGQPENNYKTTPPVLDSDGSFFLVSKLTVDKSRWQQGNVFSCSVMHEALHNRFTQKSLSLSPGK
light chain 2 (EMR2 arm, EMR2B361 Fab): QSVLTQPPSVFAAPGEKVTISCSGSSSNIGNDYVSWYQQLPGTAPKLLIYDNNKRPSGIPDRFSGSKSGTSATLGITGLQTGDEADYYCGTWDSSLSAGYVFGTGTKVTVLGQPKAAPSVTLFPPSSEELQANKATLVCLISDFYPGAVTVAWKADSSPVKAGVETTTPSKQSNNKYAASSYLSLTPEQWKSHRSYSCQVTHEGSTVEKTVAPTECS
notes: also called TPP000258023
B3: EMVBB7 (bispecific antibody, human IgG1, lambda, L234A L235A)
heavy chain 1 (Vb17 arm, B17B852-G34R-LH-spFv fused to Fc): B2 heavy chain 1 (Vb17 arm, B17B852-G34R-LH-spFv fused to Fc)
heavy chain 2 (EMR2 arm, EMR2B410 Fab): EVQLVESGGGLVQPGGSLRLSCAASGFTFSSYWMHWVRQVPGKGLVWVSRISSHGSSTSYADSVKGRFTISRDNAKNALYLQMNSLRAEDTAVYYCARGGNYYDSPYFDYWGQGTLVTVSSASTKGPSVFPLAPSSKSTSGGTAALGCLVKDYFPEPVTVSWNSGALTSGVHTFPAVLQSSGLYSLSSVVTVPSSSLGTQTYICNVNHKPSNTKVDKKVEPKSCDKTHTCPPCPAPEAAGGPSVFLFPPKPKDTLMISRTPEVTCVVVSVSHEDPEVKFNWYVDGVEVHNAKTKPREEQYNSTYRVVSVLTVLHQDWLNGKEYKCKVSNKALPAPIEKTISKAKGQPREPQVYTLPPSREEMTKNQVSLSCAVKGFYPSDIAVEWESNGQPENNYKTTPPVLDSDGSFFLVSKLTVDKSRWQQGNVFSCSVMHEALHNRFTQKSLSLSPGK
light chain 2 (EMR2 arm, EMR2B410 Fab): QSALTQPASVSGSPGQSITISCTGTSSDVGGYNYVSWYQQHPGKAPKLMIYEVSYRPSGISNRFSGSKSGDTASLTISGLQAEDEADYYCSSYTSSSTYVVFGGGTKVTVLGQPKAAPSVTLFPPSSEELQANKATLVCLISDFYPGAVTVAWKADSSPVKAGVETTTPSKQSNNKYAASSYLSLTPEQWKSHRSYSCQVTHEGSTVEKTVAPTECS
notes: also called TPP000258024

What was measured:
[1] = target: T1, human EMR2 (ADGRE2, CD312) on cells; assay: flow cytometry, median AF647 of live cells, MOLM 13 cells, 1 hour at 37 C
[2] = target: T1, human EMR2 (ADGRE2, CD312) on cells; assay: flow cytometry, median AF647 of live cells, OCI-AML5 WT cells, 1 hour at 37 C
[3] = target: T3, T-cell receptor with TRBV19 (Vβ17) beta chain on human T cells (human); assay: flow cytometry, % TRBV19+ T cells of live human pan-T cells, 1 hour at 37 C
T3 construct: whole, on cells; also called Vb17; TRBV19+ T cells

[4] = target: T2, EMR2W4, huEMR2 GAIN domain + GPS, …; assay: SPR, row 'SPR (KD) / EMR2' of the Forced Degradation table; stress condition of the KD and EMR2 construct not named on the sheet

T3 sequence (A0A075B6N1 22-114): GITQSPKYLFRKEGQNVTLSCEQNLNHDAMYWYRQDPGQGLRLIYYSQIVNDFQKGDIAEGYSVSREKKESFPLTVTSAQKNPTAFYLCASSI

Binder | EC50 [1] [nM] | Max (MFI) [1] [MFI] | EC50 [2] [nM] | Max (MFI) [2] [MFI] | EC50 [3] [nM] | Max % TRV19+ [3] [%] | Kd [4] [nM]
B1 | 301 | 420000 | 296 | 250000 | 8.03 | 6.62 | 
B2 | 12.6 | 330000 | 15.2 | 250000 | 14.5 | 9.15 | 0.186
B3 |  |  |  |  |  |  | 1.47
